Source: the supplement of paper PMC9112550, “Optimization of the antimicrobial peptide Bac7 by deep mutational scanning” (BMC Biology, 2022)

System: Escherichia coli TOP10
Test: shrunken log2 fold change of peptide-encoding DNA abundance (4.5 h post-induction vs induction); higher = less antimicrobial activity (less host growth inhibition)
Details: time post-induction: 4.5 h; library: site-saturation at positions 5, 18, 19, 20
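Also: peptides expressed intracellularly from a pBAD plasmid library in pooled LB shake-flask culture, induced with 0.3% L-arabinose, DNA abundance read by NGS, three biological replicates, DESeq2 with apeglm shrinkage.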

| Sequence | shrunken log2 fold change |
| --- | --- |
| RRIRDRPPRLPRPRPRPMQVPRP | 0.0758 |
| RRIRDRPPRLPRPRPRPMSHPRP | -0.046 |
| RRIRDRPPRLPRPRPRPMVKPRP | 0.115 |
| RRIRDRPPRLPRPRPRPMVYPRP | 0.225 |
| RRIRDRPPRLPRPRPRPMWLPRP | 0.015 |
| RRIRDRPPRLPRPRPRPMWRPRP | 0.309 |
| RRIRDRPPRLPRPRPRPNALPRP | -0.0157 |
| RRIRDRPPRLPRPRPRPNCEPRP | 0.133 |
| RRIRDRPPRLPRPRPRPNCKPRP | 0.135 |
| RRIRDRPPRLPRPRPRPNDCPRP | -0.0197 |
| RRIRDRPPRLPRPRPRPNFNPRP | -0.307 |
| RRIRDRPPRLPRPRPRPNGEPRP | 0.0768 |
| RRIRDRPPRLPRPRPRPNGRPRP | 0.00232 |
| RRIRDRPPRLPRPRPRPNHIPRP | -1 |
| RRIRDRPPRLPRPRPRPNHPPRP | -0.222 |
| RRIRDRPPRLPRPRPRPNINPRP | -0.35 |
| RRIRDRPPRLPRPRPRPNKDPRP | -0.951 |
| RRIRDRPPRLPRPRPRPNKQPRP | -0.0169 |
| RRIRDRPPRLPRPRPRPNLCPRP | 0.0227 |
| RRIRDRPPRLPRPRPRPNLKPRP | 0.114 |
| RRIRDRPPRLPRPRPRPNNDPRP | 0.132 |
| RRIRDRPPRLPRPRPRPNPRPRP | 0.0975 |
| RRIRDRPPRLPRPRPRPNQDPRP | 0.000998 |
| RRIRDRPPRLPRPRPRPNRHPRP | -0.327 |
| RRIRDRPPRLPRPRPRPNSEPRP | 0.261 |

| Sequence | shrunken log2 fold change |
| --- | --- |
| RRIRDRPPRLPRPRPRPNSKPRP | -0.506 |
| RRIRDRPPRLPRPRPRPNSVPRP | -0.0426 |
| RRIRDRPPRLPRPRPRPNTEPRP | -0.0682 |
| RRIRDRPPRLPRPRPRPNWFPRP | -0.0729 |
| RRIRDRPPRLPRPRPRPNWRPRP | 0.46 |
| RRIRDRPPRLPRPRPRPPADPRP | 0.594 |
| RRIRDRPPRLPRPRPRPPAGPRP | 0.418 |
| RRIRDRPPRLPRPRPRPPARPRP | 1.46 |
| RRIRDRPPRLPRPRPRPPCGPRP | 0.411 |
| RRIRDRPPRLPRPRPRPPCIPRP | -0.264 |
| RRIRDRPPRLPRPRPRPPFGPRP | 0.225 |
| RRIRDRPPRLPRPRPRPPGCPRP | -0.0092 |
| RRIRDRPPRLPRPRPRPPGFPRP | 0.348 |
| RRIRDRPPRLPRPRPRPPGWPRP | 1.66 |
| RRIRDRPPRLPRPRPRPPHNPRP | -0.103 |
| RRIRDRPPRLPRPRPRPPHSPRP | 0.279 |
| RRIRDRPPRLPRPRPRPPIDPRP | 0.0165 |
| RRIRDRPPRLPRPRPRPPIVPRP | -0.161 |
| RRIRDRPPRLPRPRPRPPKVPRP | 0.387 |
| RRIRDRPPRLPRPRPRPPKYPRP | -0.47 |
| RRIRDRPPRLPRPRPRPPLRPRP | 0.271 |
| RRIRDRPPRLPRPRPRPPMFPRP | 0.216 |
| RRIRDRPPRLPRPRPRPPMKPRP | 0.131 |
| RRIRDRPPRLPRPRPRPPMQPRP | 0.172 |
| RRIRDRPPRLPRPRPRPPNDPRP | 0.14 |

| Sequence | shrunken log2 fold change |
| --- | --- |
| RRIRDRPPRLPRPRPRPPPAPRP | 0.924 |
| RRIRDRPPRLPRPRPRPPSAPRP | 0.506 |
| RRIRDRPPRLPRPRPRPPSIPRP | -0.0216 |
| RRIRDRPPRLPRPRPRPPTQPRP | 0.285 |
| RRIRDRPPRLPRPRPRPPTWPRP | 0.291 |
| RRIRDRPPRLPRPRPRPPWNPRP | -0.0258 |
| RRIRDRPPRLPRPRPRPPYAPRP | 0.0432 |
| RRIRDRPPRLPRPRPRPPYIPRP | -0.346 |
| RRIRDRPPRLPRPRPRPQASPRP | -0.0448 |
| RRIRDRPPRLPRPRPRPQCSPRP | 0.0391 |
| RRIRDRPPRLPRPRPRPQCWPRP | 0.0162 |
| RRIRDRPPRLPRPRPRPQDVPRP | -0.254 |
| RRIRDRPPRLPRPRPRPQDYPRP | -0.112 |
| RRIRDRPPRLPRPRPRPQELPRP | -0.238 |
| RRIRDRPPRLPRPRPRPQEPPRP | -0.0802 |
| RRIRDRPPRLPRPRPRPQFAPRP | -0.0178 |
| RRIRDRPPRLPRPRPRPQFVPRP | -0.0477 |
| RRIRDRPPRLPRPRPRPQFYPRP | -0.129 |
| RRIRDRPPRLPRPRPRPQHCPRP | 0.0461 |
| RRIRDRPPRLPRPRPRPQHQPRP | -0.108 |
| RRIRDRPPRLPRPRPRPQIDPRP | -0.0493 |
| RRIRDRPPRLPRPRPRPQIRPRP | -0.222 |
| RRIRDRPPRLPRPRPRPQKTPRP | -0.253 |
| RRIRDRPPRLPRPRPRPQLVPRP | 0.0777 |
| RRIRDRPPRLPRPRPRPQLYPRP | -0.162 |

| Sequence | shrunken log2 fold change |
| --- | --- |
| RRIRDRPPRLPRPRPRPQMEPRP | 0.00785 |
| RRIRDRPPRLPRPRPRPQMVPRP | -0.0637 |
| RRIRDRPPRLPRPRPRPQNCPRP | 0.00875 |
| RRIRDRPPRLPRPRPRPQNMPRP | -0.574 |
| RRIRDRPPRLPRPRPRPQNTPRP | -0.605 |
| RRIRDRPPRLPRPRPRPQPFPRP | -0.0264 |
| RRIRDRPPRLPRPRPRPQSMPRP | 0.0598 |
| RRIRDRPPRLPRPRPRPQTHPRP | 0.269 |
| RRIRDRPPRLPRPRPRPQTWPRP | -0.109 |
| RRIRDRPPRLPRPRPRPQWEPRP | 0.033 |
| RRIRDRPPRLPRPRPRPQYEPRP | -0.025 |
| RRIRDRPPRLPRPRPRPRADPRP | 0.65 |
| RRIRDRPPRLPRPRPRPRAHPRP | 0.38 |
| RRIRDRPPRLPRPRPRPRAKPRP | 0.208 |
| RRIRDRPPRLPRPRPRPRCNPRP | -0.0439 |
| RRIRDRPPRLPRPRPRPRCPPRP | 0.131 |
| RRIRDRPPRLPRPRPRPRDKPRP | -0.0712 |
| RRIRDRPPRLPRPRPRPREAPRP | -0.0547 |
| RRIRDRPPRLPRPRPRPREGPRP | 1.01 |
| RRIRDRPPRLPRPRPRPRFDPRP | -0.0584 |
| RRIRDRPPRLPRPRPRPRGSPRP | 0.255 |
| RRIRDRPPRLPRPRPRPRHEPRP | -0.000978 |
| RRIRDRPPRLPRPRPRPRHTPRP | 0.122 |
| RRIRDRPPRLPRPRPRPRICPRP | 0.00396 |
| RRIRDRPPRLPRPRPRPRKAPRP | -0.0143 |

| Sequence | shrunken log2 fold change |
| --- | --- |
| RRIRDRPPRLPRPRPRPRKYPRP | -0.283 |
| RRIRDRPPRLPRPRPRPRLDPRP | 0.173 |
| RRIRDRPPRLPRPRPRPRLFPRP | 0.653 |
| RRIRDRPPRLPRPRPRPRLQPRP | 0.0983 |
| RRIRDRPPRLPRPRPRPRMLPRP | 0.229 |
| RRIRDRPPRLPRPRPRPRMPPRP | 0.156 |
| RRIRDRPPRLPRPRPRPRNQPRP | -0.00575 |
| RRIRDRPPRLPRPRPRPRPCPRP | 0.429 |
| RRIRDRPPRLPRPRPRPRPDPRP | 0.379 |
| RRIRDRPPRLPRPRPRPRPLPRP | 0.39 |
| RRIRDRPPRLPRPRPRPRPQPRP | 1.8 |
| RRIRDRPPRLPRPRPRPRPYPRP | 0.018 |
| RRIRDRPPRLPRPRPRPRRQPRP | 0.161 |
| RRIRDRPPRLPRPRPRPRRRPRP | 0.736 |
| RRIRDRPPRLPRPRPRPRSNPRP | 0.148 |
| RRIRDRPPRLPRPRPRPRTSPRP | 0.353 |
| RRIRDRPPRLPRPRPRPRWAPRP | 0.0236 |
| RRIRDRPPRLPRPRPRPSAFPRP | 0.124 |
| RRIRDRPPRLPRPRPRPSAMPRP | 0.36 |
| RRIRDRPPRLPRPRPRPSCSPRP | -0.253 |
| RRIRDRPPRLPRPRPRPSDAPRP | -0.218 |
| RRIRDRPPRLPRPRPRPSDHPRP | -0.422 |
| RRIRDRPPRLPRPRPRPSFVPRP | -0.0915 |
| RRIRDRPPRLPRPRPRPSHYPRP | -1.14 |
| RRIRDRPPRLPRPRPRPSKPPRP | -0.0858 |

| Sequence | shrunken log2 fold change |
| --- | --- |
| RRIRDRPPRLPRPRPRPSLCPRP | -0.0148 |
| RRIRDRPPRLPRPRPRPSLIPRP | -0.156 |
| RRIRDRPPRLPRPRPRPSLSPRP | -0.0503 |
| RRIRDRPPRLPRPRPRPSMIPRP | -0.162 |
| RRIRDRPPRLPRPRPRPSMKPRP | -0.198 |
| RRIRDRPPRLPRPRPRPSMYPRP | -0.105 |
| RRIRDRPPRLPRPRPRPSNHPRP | -0.548 |
| RRIRDRPPRLPRPRPRPSNWPRP | -0.136 |
| RRIRDRPPRLPRPRPRPSPAPRP | 0.0515 |
| RRIRDRPPRLPRPRPRPSPYPRP | -1.07 |
| RRIRDRPPRLPRPRPRPSQIPRP | 0.016 |
| RRIRDRPPRLPRPRPRPSQKPRP | -0.0691 |
| RRIRDRPPRLPRPRPRPSQQPRP | -0.123 |
| RRIRDRPPRLPRPRPRPSQSPRP | -0.119 |
| RRIRDRPPRLPRPRPRPSTIPRP | -0.295 |
| RRIRDRPPRLPRPRPRPSTPPRP | -0.238 |
| RRIRDRPPRLPRPRPRPSTYPRP | -0.273 |
| RRIRDRPPRLPRPRPRPSVRPRP | 0.0325 |
| RRIRDRPPRLPRPRPRPSVYPRP | -0.404 |
| RRIRDRPPRLPRPRPRPSWGPRP | 0.0384 |
| RRIRDRPPRLPRPRPRPSYNPRP | -0.285 |
| RRIRDRPPRLPRPRPRPTAFPRP | 0.231 |
| RRIRDRPPRLPRPRPRPTAVPRP | 0.421 |
| RRIRDRPPRLPRPRPRPTCGPRP | 1.11 |
| RRIRDRPPRLPRPRPRPTDHPRP | -0.0425 |
